Measurements published in patent publication US20250289897A1 (Eli Lilly, published 2025).

Tests used:
human LEPR-ECD-His = target: T1, human LEPR-ECD-His (human, UniProt P48357 22-839); assay: SPR (Biacore T200), antibody captured on Protein A/G chip, His-tagged LEPR-ECD as analyte, 1:1 fit; mean n=3, SD 2.2E-9
T1 sequence: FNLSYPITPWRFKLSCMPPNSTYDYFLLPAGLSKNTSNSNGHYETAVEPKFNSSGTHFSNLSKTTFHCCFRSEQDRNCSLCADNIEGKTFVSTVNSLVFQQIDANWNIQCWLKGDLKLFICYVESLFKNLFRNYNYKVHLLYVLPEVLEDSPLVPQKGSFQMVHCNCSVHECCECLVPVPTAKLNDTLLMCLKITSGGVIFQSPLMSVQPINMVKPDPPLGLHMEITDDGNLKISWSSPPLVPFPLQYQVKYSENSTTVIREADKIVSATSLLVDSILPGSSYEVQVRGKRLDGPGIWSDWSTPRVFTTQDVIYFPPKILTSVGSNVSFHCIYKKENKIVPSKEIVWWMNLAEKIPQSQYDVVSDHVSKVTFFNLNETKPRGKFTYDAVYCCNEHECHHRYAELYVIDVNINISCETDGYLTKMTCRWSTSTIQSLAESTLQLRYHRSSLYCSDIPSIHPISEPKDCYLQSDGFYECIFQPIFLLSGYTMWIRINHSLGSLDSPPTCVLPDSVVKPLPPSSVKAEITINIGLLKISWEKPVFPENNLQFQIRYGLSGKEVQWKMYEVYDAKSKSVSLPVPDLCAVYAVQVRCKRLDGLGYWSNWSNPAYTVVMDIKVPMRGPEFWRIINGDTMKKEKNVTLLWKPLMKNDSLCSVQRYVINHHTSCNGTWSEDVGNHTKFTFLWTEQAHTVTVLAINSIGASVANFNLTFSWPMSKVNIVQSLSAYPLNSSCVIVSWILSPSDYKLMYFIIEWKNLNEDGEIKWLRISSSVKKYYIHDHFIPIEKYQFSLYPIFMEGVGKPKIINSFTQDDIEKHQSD
Description: (§1) His-tagged ECDs were expressed and purified for each species and used for affinity analysis. A Protein A/G chip (Xantec, Cat #PAGHC200M) was utilized in this experiment with HBS-EP +0.01% BSA as running buffer. Antibodies were diluted to 1 μg/mL in running buffer and captured to a single flow cell on the chip surface. Each species of LEPR-ECD was diluted to 1000 nM in running buffer followed by 2-fold serial dilution. Each ligand concentration was injected over all flow cells at 100 L/min for 150 seconds followed by a 600 second dissociation phase. Regeneration was performed by injecting 10 mM glycine pH1.5 for 30 seconds at 10 μL/min. Data were analyzed in Biacore T200 Evaluation Software 3.1 by flow-cell 1 reference subtraction along with 0 nM blank subtraction. Data were fit globally using a “1:1 Binding” binding model to determine the on-rate (kₐ) and off-rate (kd) for each ligand. The affinity (KD) was calculated from the binding kinetics according to the relationship KD=kₐ/kd. Data reported as mean±standard deviation of experimental replicates.

canine LEPR-ECD-His = target: T2, canine LEPR-ECD-His (canine); assay: SPR (Biacore T200), antibody captured on Protein A/G chip, His-tagged LEPR-ECD as analyte, 1:1 fit; mean n=3, SD 2.4E-8
T2 chain: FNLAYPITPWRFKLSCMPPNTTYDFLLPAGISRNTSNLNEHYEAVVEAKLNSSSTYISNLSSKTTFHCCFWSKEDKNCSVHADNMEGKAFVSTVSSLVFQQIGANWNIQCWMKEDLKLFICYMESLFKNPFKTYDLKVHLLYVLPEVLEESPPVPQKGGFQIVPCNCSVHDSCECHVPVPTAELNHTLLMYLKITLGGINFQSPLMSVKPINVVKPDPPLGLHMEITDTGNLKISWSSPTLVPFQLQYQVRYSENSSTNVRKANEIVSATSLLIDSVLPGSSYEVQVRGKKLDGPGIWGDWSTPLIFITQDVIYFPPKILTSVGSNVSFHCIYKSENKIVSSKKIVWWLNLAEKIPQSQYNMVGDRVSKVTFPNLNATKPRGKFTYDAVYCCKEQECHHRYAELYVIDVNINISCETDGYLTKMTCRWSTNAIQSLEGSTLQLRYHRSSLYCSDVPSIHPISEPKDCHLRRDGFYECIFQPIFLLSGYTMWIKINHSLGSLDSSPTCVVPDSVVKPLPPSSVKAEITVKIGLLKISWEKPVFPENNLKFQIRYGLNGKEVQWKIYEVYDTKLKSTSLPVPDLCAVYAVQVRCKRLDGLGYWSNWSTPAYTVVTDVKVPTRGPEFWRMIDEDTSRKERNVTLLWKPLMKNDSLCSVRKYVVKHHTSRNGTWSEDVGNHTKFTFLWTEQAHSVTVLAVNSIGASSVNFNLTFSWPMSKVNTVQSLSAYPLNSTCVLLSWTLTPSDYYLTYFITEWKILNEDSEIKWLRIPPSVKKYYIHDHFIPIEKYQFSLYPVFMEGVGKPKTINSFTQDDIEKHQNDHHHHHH
Description: as §1

[1] = target: T3, human LEPR, full length, on HEK293-STAT3Luc-hLepR1 cells (Homo sapiens, UniProt P48357 22-1165); assay: flow cytometry on live HEK293-STAT3Luc-hLepR1 cells, AF647 anti-human IgG; average of 4 runs, SD 7.1
T3 construct: also called human LEPR on live cell surface
T3 sequence: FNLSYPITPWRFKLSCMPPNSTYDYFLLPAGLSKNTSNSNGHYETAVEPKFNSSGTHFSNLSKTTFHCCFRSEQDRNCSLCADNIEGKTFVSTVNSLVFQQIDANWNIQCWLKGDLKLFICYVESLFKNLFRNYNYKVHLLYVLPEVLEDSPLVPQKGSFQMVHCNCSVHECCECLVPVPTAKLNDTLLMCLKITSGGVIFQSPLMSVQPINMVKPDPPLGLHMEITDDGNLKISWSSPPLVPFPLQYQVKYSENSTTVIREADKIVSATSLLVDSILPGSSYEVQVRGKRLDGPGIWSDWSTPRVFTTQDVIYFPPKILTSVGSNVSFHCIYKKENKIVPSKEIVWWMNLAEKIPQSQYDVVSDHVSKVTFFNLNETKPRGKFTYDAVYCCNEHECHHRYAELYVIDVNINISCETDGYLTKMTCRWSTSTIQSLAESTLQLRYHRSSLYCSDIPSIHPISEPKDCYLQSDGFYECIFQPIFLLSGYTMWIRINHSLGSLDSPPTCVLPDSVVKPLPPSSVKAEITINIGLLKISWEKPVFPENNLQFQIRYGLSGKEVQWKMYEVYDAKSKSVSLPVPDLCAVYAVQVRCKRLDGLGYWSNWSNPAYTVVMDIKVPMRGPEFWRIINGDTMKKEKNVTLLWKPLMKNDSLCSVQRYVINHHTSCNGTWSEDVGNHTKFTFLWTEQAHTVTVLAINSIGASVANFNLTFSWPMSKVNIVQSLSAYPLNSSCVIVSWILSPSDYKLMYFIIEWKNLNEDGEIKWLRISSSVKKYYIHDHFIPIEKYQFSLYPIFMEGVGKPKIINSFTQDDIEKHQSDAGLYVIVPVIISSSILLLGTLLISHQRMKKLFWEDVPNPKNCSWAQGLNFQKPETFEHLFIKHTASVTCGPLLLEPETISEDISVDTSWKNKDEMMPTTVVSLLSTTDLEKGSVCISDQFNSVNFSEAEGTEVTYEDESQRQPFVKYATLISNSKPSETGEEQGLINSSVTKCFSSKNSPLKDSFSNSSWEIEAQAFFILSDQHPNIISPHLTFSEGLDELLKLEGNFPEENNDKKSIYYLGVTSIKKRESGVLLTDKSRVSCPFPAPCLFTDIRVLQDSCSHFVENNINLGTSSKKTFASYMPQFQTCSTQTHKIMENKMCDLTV
Description: Cells were incubated in blocking buffer for 10 mins at room temperature. After one rinse with PBS, cells were transferred to U-bottom 96-well plate at 200 μL and 0.2˜0.26^e6 cells/well. […] Cells were then incubated with 30 μL/well of antibodies diluted in flow buffer at 1000 nM as high dose followed by 9-point dose response including 5-fold dilutions not including 0 (totaling 9 concentrations for each Antibody) for 30 minutes at 4° C. in dark.

B1: Antibody A (antibody, human IgG1, kappa, L234A L235A)
heavy: EVQLLESGGGLVQPGGSLRLSCAASGFTFSSFAMSWVRQAPGKGLEWVSAISGSGGSTYSADSVRGRFTISRDNSKNTLYLQMNSLRAEDTAVYYCAKDQGDWDFLFDYWGQGTLVTVSSASTKGPSVFPLAPSSKSTSGGTAALGCLVKDYFPEPVTVSWNSGALTSGVHTFPAVLQSSGLYSLSSVVTVPSSSLGTQTYICNVNHKPSNTKVDKRVEPKSCDKTHTCPPCPAPEAAGGPSVFLFPPKPKDTLYITREPEVTCVVVSVSHEDPEVKFNWYVDGVEVHNAKTKPREEQYNSTYRVVSVLTVLHQDWLNGKEYKCKVSNKALPAPIEKTISKAKGQPREPQVYTLPPSREEMTKNQVSLTCLVKGFYPSDIAVEWESNGQPENNYKTTPPVLDSDGSFFLYSKLTVDKSRWQQGNVFSCSVMHEALHNHYTQKSLSLSPGK
light: DIQMTQSPSFLSASVGDRVTITCRASQGISSSLAWYQQKPGKAPKLLIYTASTLQSGVPSRFSGSGSGTEFTLTISSLQPEDFATYYCQQLIYYPFTFGQGTKVEIKRTVAAPSVFIFPPSDEQLKSGTASVVCLLNNFYPREAKVQWKVDNALQSGNSQESVTEQDSKDSTYSLSSTLTLSKADYEKHKVYACEVTHQGLSSPVTKSFNRGEC
notes: IgG1 mAb
B1 showed a Kd (human LEPR-ECD-His) of 20 nM and a Kd (canine LEPR-ECD-His) of 130 nM.

B2: Antibody B (antibody, human IgG1, kappa, L234A L235A, V domains shown)
VH: EVQLLESGGGLVQPGGSLRLSCAASGFTFSSFAMSWVRQAPGKGLEWVSAISGSGGSTYSADSVRGRFTISRDNSKNTLYLQMNSLRAEDTAVYYCAKDQGDWDFLFDYWGQGTLVTVSS
VL: DIQMTQSPSFLSASVGDRVTITCRVSQGISSSLAWYQQKPGKAPKLLIYTASTLQSGVPSRFSGSGSGTEFTLTISSLQPEDFATYYCQQLNYYPFTFGQGTKVEIKR
Binder B2 has an EC50 [1] of 13.6 nM.
